Reference: patent publication US20100036106

Target: Glutathione S-transferase (GST) (Schistosoma japonicum) (UniProt P08515)
Assay: FP

Chain of Glutathione S-transferase (GST) (Schistosoma japonicum) (P08515 2-218): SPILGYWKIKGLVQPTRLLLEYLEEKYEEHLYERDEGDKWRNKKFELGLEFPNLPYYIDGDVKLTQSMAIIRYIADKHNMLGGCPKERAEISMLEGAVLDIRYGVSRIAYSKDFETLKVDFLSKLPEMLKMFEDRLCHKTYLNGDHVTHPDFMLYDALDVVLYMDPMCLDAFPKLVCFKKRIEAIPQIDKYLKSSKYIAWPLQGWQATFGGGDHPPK

Sequence: GGUAGAUACGAUGGANNNNNNNNNNNNNNNNNNNNNNNNNNNNNNCAUGACGCGCAGCCAA [18th RNA pool]
- Kd: 400 nM
